Results on 1 molecule are retold here after publication PMC9860310 (Proceedings of the National Academy of Sciences of the …, 2022).

For the assay, the target named is GroEL (Escherichia coli, UniProt P0A6F5 1-548). The experiment in a line: reconstitution of the complex.
GroEL, sequence (P0A6F5 whole entry): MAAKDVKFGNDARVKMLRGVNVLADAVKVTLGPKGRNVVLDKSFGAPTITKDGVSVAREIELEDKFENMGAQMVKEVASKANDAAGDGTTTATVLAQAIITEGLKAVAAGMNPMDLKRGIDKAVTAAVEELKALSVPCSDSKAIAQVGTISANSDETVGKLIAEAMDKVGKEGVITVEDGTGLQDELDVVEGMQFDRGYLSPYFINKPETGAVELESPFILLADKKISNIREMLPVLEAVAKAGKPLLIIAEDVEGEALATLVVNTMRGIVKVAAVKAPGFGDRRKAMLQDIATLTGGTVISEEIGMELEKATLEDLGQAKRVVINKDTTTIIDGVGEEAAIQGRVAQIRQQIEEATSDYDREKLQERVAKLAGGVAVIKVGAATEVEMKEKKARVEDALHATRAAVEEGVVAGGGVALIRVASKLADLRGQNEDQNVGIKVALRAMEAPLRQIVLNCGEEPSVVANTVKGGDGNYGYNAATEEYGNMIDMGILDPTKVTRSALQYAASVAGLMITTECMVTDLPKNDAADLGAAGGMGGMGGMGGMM

B1: GroES (natural protein, Escherichia coli, UniProt P0A6F9 1-97, looked up)
chain: MNIRPLHDRVIVKRKEVETKSAGGIVLTGSAAAKSTRGEVLAVGNGRILENGEVKPLDVKVGDIVIFNDGYGVKSEKIDNEEVLIMSESDILAIVEA
In the case of B1, the binding result was “binds”.
